Substrate in the series: CCCCCCCCCCCC(=O)O
The series is described as follows: initial rates of substrate consumption by GC, Hill fit. Format: biochemical, Alicyclobacillus acidocaldarius. The settings on record: excess H2O2, pH 7.4, 28 °C, Hill n 2.1 ± 0.8. The source says: initial rates of substrate consumption by GC, Hill fit on CYP-Aa162

B1: CYP-Aa162 (Alicyclobacillus acidocaldarius LAA1) (protein)
chain: MNQCIPRDRTFDSSLALIKEGYLFIKNRVDQYQSDIFEARLLLENVVCMHGAEAAKLFYNTELFQRQGALPKRVQKTLFGENAIQTLDGTAHLHRKQLFLSLLTPDQEKSLATLATTQWRECAKVWENADRVVLFEEAKRMLCRIACQWTGVPLDESEVSKRADDFGAMVDAFGAVGPRHWKGRRARARAEAWLRQMIDEIRIGLRSVDEHTPLHVVAFWRDVNGNLLDAQMVAIELINLLRPIVAISTFITFSALALHEHPTWRDRLKARNEADIEMFVQEVRRYYPFAPFLGARVKKDFVWRGYEFKRGTLVLLDVYGTHHDARLWDSPNEFRPERFMRKTVGPFDLIPQGGGDSHTGHRCPGEGATIEIMKASVDFLVNQIDFEVPAQDLSYRLDVMPTLPKSGFVLTHVHRKFIASPTIATPNGSEALPSEV
As to B1, the K0.5 was determined as 93.1 ± 37.7 µM, the kcat came out at 0.768 ± 0.285 s⁻¹ and the kcat/Km was 8330 M⁻¹ s⁻¹.

What is called kcat is the number of substrate molecules converted per active site and unit of time at saturation. As usually defined, the kcat/Km is the turnover number divided by the Michaelis constant.
